Measurements as given in US20170182047A9, “Post-Translational Regulation of Catalytic Activities of Cytochrome P450 46A1 and Uses Thereof” (The Board of Regents of the University of Texas System, priority 2007, published 2017).

Tests used:
[1] = substrate: CC(C)CCC[C@@H](C)[C@H]1CC[C@H]2[C@@H]3CC=C4C[C@@H](O)CC[C@]4(C)[C@H]3CC[C@]12C; assay: purified protein, by the assay type; conditions: other: compound as substrate, 37.0 °C
Procedure: (§1) The ability of recombinant CYP46A1 to metabolize CH-3S was tested using the reconstituted with cytochrome P450 reductase in vitro system. After termination of the enzyme reaction, the substrate and products were extracted, solvolyzed, converted into trimethylsilyl ethers and analyzed by gas chromatography-mass spectrometry as described (23). […] The reaction conditions were optimized for the formation of only one product.
(§2) The reconstituted system (1 ml) contained 0.1-0.25 μM P450, 0.5 μM NADPH cytochrome P450 oxidoreductase, varying concentrations of cold substrate (1-75 μM), 250,000 cpm of radiolabeled substrate, and 2U of catalase. […] The organic phase was isolated, evaporated, dissolved in acetonitrile, and subjected to HPLC. […] Substrate metabolism was <18% and linear with reaction time and enzyme concentration.

[2] = substrate: CC(C)CCC[C@@H](C)[C@H]1CC[C@H]2[C@@H]3CC=C4C[C@@H](OS(=O)(=O)O)CC[C@]4(C)[C@H]3CC[C@]12C; assay: purified protein, by the assay type; conditions: other: compound as substrate, 37.0 °C
Procedure: as §1, §2

B1: Δ(2-50)CYP46A1dH (Homo sapiens) (protein)
chain: MKKDEVGGRVLQDVFLDWAKKYGPVVRVNVFHKTSVIVTSPESVKKFLMSTKYNKDSKMYRALQTVFGERLFGQGLVSECNYERWHKQRRVIDLAFSRSSLVSLMETFNEKAEQLVEILEAKADGQTPVSMQDMLTYTAMDILAKAAFGMETSMLLGAQKPLSQAVKLMLEGITASRNTLAKFLPGKRKQLREVRESIRFLRQVGRDWVQRRREALKRGEEVPADILTQILKAEEGAQDDEGLLDNFVTFFIAGHETSANHLAFTVMELSRQPEIVARLQAEVDEVIGSKRYLDFEDLGRLQYLSQVLKESLRLYPPAWGTFRLLEEETLIDGVRVPGNTPLLFSTYVMGRMDTYFEDPLTFNPDRFGPGAPKPRFTYFPFSLGHRSCIGQQFAQMEVKVVMAKLLQRLEFRLVPGQRFGLQEQATLKPLDPVLCTLRPRGWQPAPPPPPC
[1]; Δ(2-50) CYP46A1
  Km: 7.7 µM
  kcat: 0.43 min⁻¹
  kcat/Km: 0.06 min⁻¹ µM⁻¹
[2]; Δ(2-50) CYP46A1
  Km: 3.3 µM

B2: full-length CYP46A1 (Homo sapiens) (protein)
chain: MSPGLLLLGSAVLLAFGLCCTFVHRARSRYEHIPGPPRPSFLLGHLPCFWKKDEVGGRVLQDVFLDWAKKYGPVVRVNVFHKTSVIVTSPESVKKFLMSTKYNKDSKMYRALQTVFGERLFGQGLVSECNYERWHKQRRVIDLAFSRSSLVSLMETFNEKAEQLVEILEAKADGQTPVSMQDMLTYTAMDILAKAAFGMETSMLLGAQKPLSQAVKLMLEGITASRNTLAKFLPGKRKQLREVRESIRFLRQVGRDWVQRRREALKRGEEVPADILTQILKAEEGAQDDEGLLDNFVTFFIAGHETSANHLAFTVMELSRQPEIVARLQAEVDEVIGSKRYLDFEDLGRLQYLSQVLKESLRLYPPAWGTFRLLEEETLIDGVRVPGNTPLLFSTYVMGRMDTYFEDPLTFNPDRFGPGAPKPRFTYFPFSLGHRSCIGQQFAQMEVKVVMAKLLQRLEFRLVPGQRFGLQEQATLKPLDPVLCTLRPRGWQPAPPPPPC
[1]; Full-length CYP46A1
  Km: 5.4 µM
  kcat: 0.11^2 min^−1
  kcat/Km: 0.02 min⁻¹ µM⁻¹
[2]; Full-length CYP46A1
  Km: 4.9 µM
